# In the Human Domainome abundance scans (Beltran et al. 2025):
# ± gives the uncertainty stated by the source.
# B1: Calcium-binding protein 2, residues 155 to 219; numbered along this chain, Q9NPB3 (parent)
# chain: RELRDAFREFDTNGDGRISVGELRAALKALLGERLSQREVDEILQDVDLNGDGLVDFEEFVRMMS
# Variants of: B1
# Assay: abundance fitness (aPCA) (normalised: wild type 0, dead -1); higher = more abundant; growth selection in yeast, the domain comes from the species named
# Conditions: Homo sapiens
row,Variant,abundance fitness
1,RELRDAFREFDTNGDGRISVFELRAALKALLGERLSQREVDEILQDVDLNGDGLVDFEEFVRMMS,0.102 ± 0.29
2,RELRDAFREFDTNGDGRISVMELRAALKALLGERLSQREVDEILQDVDLNGDGLVDFEEFVRMMS,-0.09 ± 0.093
3,RELRDAFREFDTNGDGRISVDELRAALKALLGERLSQREVDEILQDVDLNGDGLVDFEEFVRMMS,0.141 ± 0.089
4,RELRDAFREFDTNGDGRISVHELRAALKALLGERLSQREVDEILQDVDLNGDGLVDFEEFVRMMS,-0.328 ± 0.3
5,RELRDAFREFDTNGDGRISVVELRAALKALLGERLSQREVDEILQDVDLNGDGLVDFEEFVRMMS,-0.061 ± 0.039
6,RELRDAFREFDTNGDGRISVAELRAALKALLGERLSQREVDEILQDVDLNGDGLVDFEEFVRMMS,0 ± 0.055
7,RELRDAFREFDTNGDGRISVIELRAALKALLGERLSQREVDEILQDVDLNGDGLVDFEEFVRMMS,-0.134 ± 0.18
8,RELRDAFREFDTNGDGRISVKELRAALKALLGERLSQREVDEILQDVDLNGDGLVDFEEFVRMMS,-0.193 ± 0.077
9,RELRDAFREFDTNGDGRISVLELRAALKALLGERLSQREVDEILQDVDLNGDGLVDFEEFVRMMS,-0.049 ± 0.043
10,RELRDAFREFDTNGDGRISVWELRAALKALLGERLSQREVDEILQDVDLNGDGLVDFEEFVRMMS,-0.423 ± 0.2
11,RELRDAFREFDTNGDGRISVQELRAALKALLGERLSQREVDEILQDVDLNGDGLVDFEEFVRMMS,-0.001 ± 0.11
12,RELRDAFREFDTNGDGRISVSELRAALKALLGERLSQREVDEILQDVDLNGDGLVDFEEFVRMMS,-0.026 ± 0.066
13,RELRDAFREFDTNGDGRISVRELRAALKALLGERLSQREVDEILQDVDLNGDGLVDFEEFVRMMS,-0.196 ± 0.053
14,RELRDAFREFDTNGDGRISVTELRAALKALLGERLSQREVDEILQDVDLNGDGLVDFEEFVRMMS,0.01 ± 0.069
15,RELRDAFREFDTNGDGRISVNELRAALKALLGERLSQREVDEILQDVDLNGDGLVDFEEFVRMMS,-0.064 ± 0.1
16,RELRDAFREFDTNGDGRISVCELRAALKALLGERLSQREVDEILQDVDLNGDGLVDFEEFVRMMS,-0.244 ± 0.23
17,RELRDAFREFDTNGDGRISVPELRAALKALLGERLSQREVDEILQDVDLNGDGLVDFEEFVRMMS,0.044 ± 0.052
18,RELRDAFREFDTNGDGRISVGEFRAALKALLGERLSQREVDEILQDVDLNGDGLVDFEEFVRMMS,-0.235 ± 0.1
19,RELRDAFREFDTNGDGRISVGETRAALKALLGERLSQREVDEILQDVDLNGDGLVDFEEFVRMMS,-0.023 ± 0.14
20,RELRDAFREFDTNGDGRISVGEYRAALKALLGERLSQREVDEILQDVDLNGDGLVDFEEFVRMMS,-0.249 ± 0.15
21,RELRDAFREFDTNGDGRISVGEPRAALKALLGERLSQREVDEILQDVDLNGDGLVDFEEFVRMMS,-0.592 ± 0.12

row,Variant,abundance fitness
1,RELRDAFREFDTNGDGRISVGEGRAALKALLGERLSQREVDEILQDVDLNGDGLVDFEEFVRMMS,-0.193 ± 0.07
2,RELRDAFREFDTNGDGRISVGEARAALKALLGERLSQREVDEILQDVDLNGDGLVDFEEFVRMMS,0.118 ± 0.072
3,RELRDAFREFDTNGDGRISVGEERAALKALLGERLSQREVDEILQDVDLNGDGLVDFEEFVRMMS,-0.663 ± 0.14
4,RELRDAFREFDTNGDGRISVGESRAALKALLGERLSQREVDEILQDVDLNGDGLVDFEEFVRMMS,-0.238 ± 0.15
5,RELRDAFREFDTNGDGRISVGEMRAALKALLGERLSQREVDEILQDVDLNGDGLVDFEEFVRMMS,0.025 ± 0.094
6,RELRDAFREFDTNGDGRISVGECRAALKALLGERLSQREVDEILQDVDLNGDGLVDFEEFVRMMS,-0.139 ± 0.28
7,RELRDAFREFDTNGDGRISVGEVRAALKALLGERLSQREVDEILQDVDLNGDGLVDFEEFVRMMS,-0.133 ± 0.084
8,RELRDAFREFDTNGDGRISVGEQRAALKALLGERLSQREVDEILQDVDLNGDGLVDFEEFVRMMS,-0.468 ± 0.12
9,RELRDAFREFDTNGDGRISVGENRAALKALLGERLSQREVDEILQDVDLNGDGLVDFEEFVRMMS,-0.213 ± 0.096
10,RELRDAFREFDTNGDGRIVVGELRAALKALLGERLSQREVDEILQDVDLNGDGLVDFEEFVRMMS,-0.517 ± 0.061
11,RELRDAFREFDTNGDGRIYVGELRAALKALLGERLSQREVDEILQDVDLNGDGLVDFEEFVRMMS,-0.822 ± 0.28
12,RELRDAFREFDTNGDGRIWVGELRAALKALLGERLSQREVDEILQDVDLNGDGLVDFEEFVRMMS,-0.58 ± 0.11
13,RELRDAFREFDTNGDGRIRVGELRAALKALLGERLSQREVDEILQDVDLNGDGLVDFEEFVRMMS,-0.687 ± 0.074
14,RELRDAFREFDTNGDGRITVGELRAALKALLGERLSQREVDEILQDVDLNGDGLVDFEEFVRMMS,0.227 ± 0.068
15,RELRDAFREFDTNGDGRISVGELRTALKALLGERLSQREVDEILQDVDLNGDGLVDFEEFVRMMS,-0.035 ± 0.11
16,RELRDAFREFDTNGDGRISVGELRDALKALLGERLSQREVDEILQDVDLNGDGLVDFEEFVRMMS,0.045 ± 0.082
17,RELRDAFREFDTNGDGRISVGELRFALKALLGERLSQREVDEILQDVDLNGDGLVDFEEFVRMMS,-0.093 ± 0.25
18,RELRDAFREFDTNGDGRISVGELRMALKALLGERLSQREVDEILQDVDLNGDGLVDFEEFVRMMS,0.019 ± 0.11
19,RELRDAFREFDTNGDGRISVGELRCALKALLGERLSQREVDEILQDVDLNGDGLVDFEEFVRMMS,0.177 ± 0.14
20,RELRDAFREFDTNGDGRISVGELRQALKALLGERLSQREVDEILQDVDLNGDGLVDFEEFVRMMS,-0.068 ± 0.15
21,RELRDAFREFDTNGDGRISVGELRGALKALLGERLSQREVDEILQDVDLNGDGLVDFEEFVRMMS,0.01 ± 0.061

row,Variant,abundance fitness
1,RELRDAFREFDTNGDGRISVGELRYALKALLGERLSQREVDEILQDVDLNGDGLVDFEEFVRMMS,-0.159 ± 0.16
2,RELRDAFREFDTNGDGRISVGELRRALKALLGERLSQREVDEILQDVDLNGDGLVDFEEFVRMMS,0.051 ± 0.054
3,RELRDAFREFDTNGDGRISVGELRVALKALLGERLSQREVDEILQDVDLNGDGLVDFEEFVRMMS,-0.035 ± 0.063
4,RELRDAFREFDTNGDGRISVGELRWALKALLGERLSQREVDEILQDVDLNGDGLVDFEEFVRMMS,-0.189 ± 0.075
5,RELRDAFREFDTNGDGRISVGELRNALKALLGERLSQREVDEILQDVDLNGDGLVDFEEFVRMMS,-0.109 ± 0.32
6,RELRDAFREFDTNGDGRISVGELRHALKALLGERLSQREVDEILQDVDLNGDGLVDFEEFVRMMS,-0.012 ± 0.13
7,RELRDAFREFDTNGDGRISVGELREALKALLGERLSQREVDEILQDVDLNGDGLVDFEEFVRMMS,0.096 ± 0.13
8,RELRDAFREFDTNGDGRISVGELRLALKALLGERLSQREVDEILQDVDLNGDGLVDFEEFVRMMS,0.139 ± 0.062
9,RELRDAFREFDTNGDGRISVGELRPALKALLGERLSQREVDEILQDVDLNGDGLVDFEEFVRMMS,-0.022 ± 0.11
10,RELRDAFREFDTNGDGRISVGELRSALKALLGERLSQREVDEILQDVDLNGDGLVDFEEFVRMMS,0.084 ± 0.096
11,RELRDAFREFDTNGDGRISVGWLRAALKALLGERLSQREVDEILQDVDLNGDGLVDFEEFVRMMS,-0.837 ± 0.11
12,RELRDAFREFDTNGDGRISVGYLRAALKALLGERLSQREVDEILQDVDLNGDGLVDFEEFVRMMS,-0.814 ± 0.14
13,RELRDAFREFDTNGDGRISVGVLRAALKALLGERLSQREVDEILQDVDLNGDGLVDFEEFVRMMS,-0.489 ± 0.074
14,RELRDAFREFDTNGDGRISVGQLRAALKALLGERLSQREVDEILQDVDLNGDGLVDFEEFVRMMS,-0.357 ± 0.1
15,RELRDAFREFDTNGDGRISVGILRAALKALLGERLSQREVDEILQDVDLNGDGLVDFEEFVRMMS,-0.729 ± 0.34
16,RELRDAFREFDTNGDGRISVGRLRAALKALLGERLSQREVDEILQDVDLNGDGLVDFEEFVRMMS,-0.549 ± 0.061
17,RELRDAFREFDTNGDGRISVGDLRAALKALLGERLSQREVDEILQDVDLNGDGLVDFEEFVRMMS,-0.49 ± 0.34
18,RELRDAFREFDTNGDGRISVGPLRAALKALLGERLSQREVDEILQDVDLNGDGLVDFEEFVRMMS,-1.05 ± 0.16
19,RELRDAFREFDTNGDGRISVGNLRAALKALLGERLSQREVDEILQDVDLNGDGLVDFEEFVRMMS,-0.726 ± 0.35
20,RELRDAFREFDTNGDGRISVGALRAALKALLGERLSQREVDEILQDVDLNGDGLVDFEEFVRMMS,-0.342 ± 0.066
21,RELRDAFREFDTNGDGRISVGGLRAALKALLGERLSQREVDEILQDVDLNGDGLVDFEEFVRMMS,0.093 ± 0.11

row,Variant,abundance fitness
1,RELRDAFREFDTNGDGRISVGCLRAALKALLGERLSQREVDEILQDVDLNGDGLVDFEEFVRMMS,-0.469 ± 0.23
2,RELRDAFREFDTNGDGRISVGTLRAALKALLGERLSQREVDEILQDVDLNGDGLVDFEEFVRMMS,-0.486 ± 0.082
3,RELRDAFREFDTNGDGRISVGMLRAALKALLGERLSQREVDEILQDVDLNGDGLVDFEEFVRMMS,-0.535 ± 0.15
4,RELRDAFREFDTNGDGRISVGELRAFLKALLGERLSQREVDEILQDVDLNGDGLVDFEEFVRMMS,-0.041 ± 0.29
5,RELRDAFREFDTNGDGRISVGELRAGLKALLGERLSQREVDEILQDVDLNGDGLVDFEEFVRMMS,0.05 ± 0.081
6,RELRDAFREFDTNGDGRISVGELRACLKALLGERLSQREVDEILQDVDLNGDGLVDFEEFVRMMS,0.215 ± 0.11
7,RELRDAFREFDTNGDGRISVGELRAELKALLGERLSQREVDEILQDVDLNGDGLVDFEEFVRMMS,-0.86 ± 0.12
8,RELRDAFREFDTNGDGRISVGELRADLKALLGERLSQREVDEILQDVDLNGDGLVDFEEFVRMMS,-0.379 ± 0.27
9,RELRDAFREFDTNGDGRISGGELRAALKALLGERLSQREVDEILQDVDLNGDGLVDFEEFVRMMS,0.004 ± 0.067
10,RELRDAFREFDTNGDGRISAGELRAALKALLGERLSQREVDEILQDVDLNGDGLVDFEEFVRMMS,-0.317 ± 0.092
11,RELRDAFREFDTNGDGRISSGELRAALKALLGERLSQREVDEILQDVDLNGDGLVDFEEFVRMMS,-0.164 ± 0.076
12,RELRDAFREFDTNGDGRISPGELRAALKALLGERLSQREVDEILQDVDLNGDGLVDFEEFVRMMS,0.163 ± 0.11
13,RELRDAFREFDTNGDGRISLGELRAALKALLGERLSQREVDEILQDVDLNGDGLVDFEEFVRMMS,0.093 ± 0.05
14,RELRDAFREFDTNGDGRISTGELRAALKALLGERLSQREVDEILQDVDLNGDGLVDFEEFVRMMS,-0.146 ± 0.12
15,RELRDAFREFDTNGDGRISKGELRAALKALLGERLSQREVDEILQDVDLNGDGLVDFEEFVRMMS,-0.639 ± 0.23
16,RELRDAFREFDTNGDGRISMGELRAALKALLGERLSQREVDEILQDVDLNGDGLVDFEEFVRMMS,0.066 ± 0.094
17,RELRDAFREFDTNGDGRISNGELRAALKALLGERLSQREVDEILQDVDLNGDGLVDFEEFVRMMS,0.081 ± 0.3
18,RELRDAFREFDTNGDGRISHGELRAALKALLGERLSQREVDEILQDVDLNGDGLVDFEEFVRMMS,-0.043 ± 0.13
19,RELRDAFREFDTNGDGRISQGELRAALKALLGERLSQREVDEILQDVDLNGDGLVDFEEFVRMMS,-0.005 ± 0.081
20,RELRDAFREFDTNGDGRISCGELRAALKALLGERLSQREVDEILQDVDLNGDGLVDFEEFVRMMS,0.061 ± 0.16
